In paper PMC12122834:

Tests used:
Experiment in all cases: EMSA
[1] = biological target: YoaA;chi R128A (HolC R128A) (Escherichia coli;Escherichia coli, UniProt P76257;P28905 1-636;1-147, |R128A)
[2] = biological target: YoaA;chi (HolC);SSB (Escherichia coli;Escherichia …, UniProt P76257;P28905;P0AGE0 1-636;1-147;2-178, ||)
[3] = biological target: DinG;SSB (Escherichia coli;Escherichia coli, UniProt P27296;P0AGE0 1-716;2-178, |)
[4] = biological target: T1, DinG (Escherichia coli, UniProt P27296 1-716)
T1 sequence: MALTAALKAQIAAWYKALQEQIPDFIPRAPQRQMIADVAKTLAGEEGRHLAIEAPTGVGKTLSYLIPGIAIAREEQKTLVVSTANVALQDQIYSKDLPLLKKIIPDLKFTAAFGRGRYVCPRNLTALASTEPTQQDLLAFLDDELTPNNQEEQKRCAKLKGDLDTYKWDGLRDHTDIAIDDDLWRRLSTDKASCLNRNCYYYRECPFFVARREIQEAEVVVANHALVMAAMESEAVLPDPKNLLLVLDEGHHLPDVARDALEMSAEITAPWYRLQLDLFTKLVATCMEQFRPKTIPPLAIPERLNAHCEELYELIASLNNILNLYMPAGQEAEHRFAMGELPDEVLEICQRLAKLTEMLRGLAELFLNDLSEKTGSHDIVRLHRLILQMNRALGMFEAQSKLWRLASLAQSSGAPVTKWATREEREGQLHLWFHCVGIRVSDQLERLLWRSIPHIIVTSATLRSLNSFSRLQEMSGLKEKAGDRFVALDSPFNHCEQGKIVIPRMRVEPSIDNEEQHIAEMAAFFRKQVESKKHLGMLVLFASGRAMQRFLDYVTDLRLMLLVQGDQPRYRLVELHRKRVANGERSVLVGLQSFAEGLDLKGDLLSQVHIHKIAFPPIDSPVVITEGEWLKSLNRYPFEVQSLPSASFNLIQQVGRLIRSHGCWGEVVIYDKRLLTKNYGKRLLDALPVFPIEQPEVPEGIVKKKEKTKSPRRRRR

[5] = biological target: SSB deltaC1 (Escherichia coli, UniProt P0AGE0 2-177, del178-178)
[6] = biological target: SSB (Escherichia coli, UniProt P0AGE0 2-178)
[7] = biological target: YoaA;chi (HolC) (Escherichia coli;Escherichia coli, UniProt P76257;P28905 1-636;1-147, |)

Measured: binding result

B1: ssT65 (S21) (ssDNA)
DNA: TTTTTTTTTTTTTTTTTTTTTTTTTTTTTTTTTTTTTTTTTTTTTTTTTTTTTTTTTTTTTTTTT
binds: all assays above
